The source of these data is patent publication US20250145701A1 (REMEGEN SHANGHAI, published 2025).

For experiment [1], the target named is T1, monkey PD-1 (ACRO, His tag) (monkey, UniProt B0LAJ3 25-170).
T1 construct: Bought protein
Nature of the experiment: ELISA, monkey PD-1-His coated at 1 ug/mL, anti-human IgG Fc detection, OD450. As to the method: The binding of candidate molecules and competitor to antigens of different species was detected by ELISA. […] The binding of antibodies to monkey PD-1 was detected by ELISA. An ELISA plate was coated with 1 μg/mL monkey PD-1 (ACRO, His tag) overnight and blocked. Subsequently, the plate was added with gradient dilutions of the sample to be tested and the control antibody, incubated and washed. Then, the plate was added with HRP-labeled anti-human IgG Fc secondary antibody, incubated and washed. After TMB solution was added for color development, the OD450 absorbance value was read on a microplate reader (see Table 15).

In experiment [2] the target is T2, human PD-1 (ACRO, His tag) (human, UniProt Q15116 25-167).
T2 construct: Bought protein; not shown: His tag
T2 sequence (Q15116 25-167 limits assumed): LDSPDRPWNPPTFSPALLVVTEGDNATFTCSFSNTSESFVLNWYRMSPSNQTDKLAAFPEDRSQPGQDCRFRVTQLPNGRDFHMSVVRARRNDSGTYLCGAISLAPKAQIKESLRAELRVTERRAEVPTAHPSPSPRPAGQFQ
Briefly: ELISA, human PD-1-His coated at 1 ug/mL, anti-human IgG Fc detection, OD450. On the procedure:
The binding of the antibody to human PD-1 was detected by ELISA. 1 μg/mL human PD-1 (ACRO, His tag) was coated on an ELISA plate overnight and blocked. Subsequently, the plate was added with gradient dilutions of the bispecific antibody and the control antibody, incubated and washed. Then, the plate was added with HRP-labeled anti-human IgG Fc secondary antibody, incubated and washed. After TMB solution was added for color development, the OD450 absorbance value was read on a microplate reader (see Table 12). […] Subsequently, the plate was added with gradient dilutions of the sample to be tested and the control antibody, incubated and washed. Then, the plated was added with HRP-labeled anti-human IgG Fc secondary antibody, incubated and washed. After TMB solution was added for color development, the OD450 absorbance value was read on a microplate reader (see Table 13). […] (The control substances were all obtained by in-house expression and purification)

Experiment [3] addresses T2, human PD-1 (ACRO, His tag). Nature of the experiment: bridging ELISA: human PD-1-His coated at 1 ug/mL, antibody, then biotinylated human VEGF at 50 ng/ml and streptavidin-HRP, OD450. On the procedure:
The order of the binding to VEGF and PD-1 was changed for dual ELISA detection. A 96-well ELISA plate was coated with 1 μg/mL human PD-1 (ACRO, His tag) overnight, washed and blocked for 1 hour. […] TMB solution was added for color development, and the OD450 nm absorbance value was read on a microplate reader.

Experiment [4] addresses VEGF (species and construct not stated). Nature of the experiment: cell-based or functional assay.
Experiment [5] deals with T3, human VEGF (ACRO, His tag) (human, UniProt P15692-4 27-191, limits assumed).
T3 construct: Bought protein; not shown: His tag
T3 sequence (P15692 other isoform, or with tags, fused parts or gaps limits assumed): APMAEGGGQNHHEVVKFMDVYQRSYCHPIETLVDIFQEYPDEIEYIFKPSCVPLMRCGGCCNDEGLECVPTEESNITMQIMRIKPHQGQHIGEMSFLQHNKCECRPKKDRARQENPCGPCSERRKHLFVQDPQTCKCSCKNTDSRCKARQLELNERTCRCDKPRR
Briefly: ELISA, human VEGF-His coated at 50 ng/ml, anti-human IgG Fc detection, OD450.

Sequence of VEGF (species and construct not stated) (P15692 whole entry): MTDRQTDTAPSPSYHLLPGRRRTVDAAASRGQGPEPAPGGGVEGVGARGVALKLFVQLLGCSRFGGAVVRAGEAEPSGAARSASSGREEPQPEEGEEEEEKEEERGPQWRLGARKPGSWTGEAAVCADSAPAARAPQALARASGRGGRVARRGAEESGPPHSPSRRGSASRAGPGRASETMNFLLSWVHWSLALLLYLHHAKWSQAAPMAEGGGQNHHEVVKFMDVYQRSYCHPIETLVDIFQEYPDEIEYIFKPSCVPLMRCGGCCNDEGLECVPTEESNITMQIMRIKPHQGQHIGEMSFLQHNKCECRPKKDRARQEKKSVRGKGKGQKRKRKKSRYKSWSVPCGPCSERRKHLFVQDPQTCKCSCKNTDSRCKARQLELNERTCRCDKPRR
T1 sequence (B0LAJ3 entry or part of it limits assumed, form in doubt): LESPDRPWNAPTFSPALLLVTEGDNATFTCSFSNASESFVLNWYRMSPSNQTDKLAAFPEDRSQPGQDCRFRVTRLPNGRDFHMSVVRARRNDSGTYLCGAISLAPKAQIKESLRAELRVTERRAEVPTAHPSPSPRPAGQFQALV

B1: #16 bispecific antibody targeting PD-1 and VEGF (bispecific antibody, human IgG1, kappa)
heavy: QVQLVQSGVEVKKPGASVKVSCKASGYTFTNYYMYWVRQAPGQGLEWMGGINPSNGGTNFNEKFKNRVTLTTDSSTTTAYMELKSLQFDDTAVYYCARRDYRFDMGFDYWGQGTTVTVSSASTKGPSVFPLAPSSKSTSGGTAALGCLVKDYFPEPVTVSWNSGALTSGVHTFPAVLQSSGLYSLSSVVTVPSSSLGTQTYICNVNHKPSNTKVDKKVEPKSCDKTHTCPPCPAPEAEGAPSVFLFPPKPKDTLMISRTPEVTCVVVDVSHEDPEVKFNWYVDGVEVHNAKTKPREEQYNSTYRVVSVLTVLHQDWLNGKEYKCKVSNKALPSSIEKTISKAKGQPREPQVYTLPPSREEMTKNQVSLTCLVKGFYPSDIAVEWESNGQPENNYKTTPPVLDSDGSFFLYSKLTVDKSRWQQGNVFSCSVMHEALHNHYTQKSLSLSPGEVQLLESGGGLVQPGGSLRLSCAASGFTFSTSTMSWYRQAPGKERELVSFITSAGATTYYADSVKGRFTMSRDNSKNTVYLQMNSLRAEDTAVYYCRALVTLWNVYWGQGTLVTVSS
light: EIVLTQSPATLSLSPGERATLSCRASKGVSTSGYSYLHWYQQKPGQAPRLLIYLASYLESGVPARFSGSGSGTDFTLTISSLEPEDFAVYYCQHSRDLPLTFGGGTKVEIKRTVAAPSVFIFPPSDEQLKSGTASVVCLLNNFYPREAKVQWKVDNALQSGNSQESVTEQDSKDSTYSLSSTLTLSKADYEKHKVYACEVTHQGLSSPVTKSFNRGEC
notes: Valence is 2+2
B1: the “TOP OD” value in experiment [1] is 3.38 OD; in experiment [2], 2.58 OD; in experiment [3] it was 3.65 OD; in experiment [5], 1.75 OD. For the same molecule, the “maximum inhibition rate of HUVEC proliferation” value in experiment [4] is about 60%.

B2: Strain #48 VHH (Fc fusion)
chain: EVQLLESGGGLVQPGGSLRLSCAASGFTFSTSTMSWYRQAPGKERELVSFITSAGATTYYADSVKGRFTMSRDNSKNTVYLQMNSLRAEDTAVYYCRALVTLWNVYWGQGTLVTVSS
notes: Humanized variant of #6 (Q1E+Q5L+A49S+N58Y+D65G+D74S+V(82B)S+K83R+P84A+M89V+Q108L, Kabat); not shown: A printed molecular weight of 76.46 kD and detection by anti-human IgG Fc p
On to B2, for which the “TOP OD” value in experiment [5] was 3.09 OD.
